In the test the target is fluorescein-labelled divalent stargazin-derived peptide ligand. In words: fluorescence polarisation; direct titration: 50 nM fluorescein-labelled stargazin ligand (divalent or monovalent) against increasing concentrations of PDZ domains; apparent KD. For orientation: Fluorescence polarisation rises when a labelled molecule tumbles more slowly, as on binding a larger partner.

B1: SAP102 tandem PDZ domains 1 and 2 (SAP102-12), from pET-NO (domain or fragment)
chain: FKYEEIVLERGNSGLGFSIAGGIDNPHVPDDPGIFITKIIPGGAAAMDGRLGVNDCVLRVNEVDVSEVVHSRAVEALKEAGPVVRLVVRRRQPPPETIMEVNLLKGPKGLGFSIAGGIGNQHIPGDNSIYITKIIEGGAAQKDGRLQIGDRLLAVNNTNLQDVRHEEAVASLKNTSDMVYLKVAKPGSL
For B1, the Kd worked out at 175 nM.
